The source of these data is US20260209301A1, “Galanin-2 Receptor Agonists” (LIFEARC, priority 2022, published 2026).

For test [1], the target named is T1, GALR2 (Homo sapiens, UniProt O43603).
T1 sequence (O43603 1-387): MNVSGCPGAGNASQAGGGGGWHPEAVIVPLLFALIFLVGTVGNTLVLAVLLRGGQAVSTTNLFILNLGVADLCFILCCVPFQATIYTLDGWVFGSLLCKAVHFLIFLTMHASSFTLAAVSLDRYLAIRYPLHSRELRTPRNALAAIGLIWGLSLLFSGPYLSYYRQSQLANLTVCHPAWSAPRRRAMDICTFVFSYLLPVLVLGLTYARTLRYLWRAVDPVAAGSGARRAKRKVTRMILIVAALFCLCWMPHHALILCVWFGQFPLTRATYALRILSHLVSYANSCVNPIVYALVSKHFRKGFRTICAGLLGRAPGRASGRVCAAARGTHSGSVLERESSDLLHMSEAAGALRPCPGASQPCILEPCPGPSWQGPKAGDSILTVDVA
The test is described as follows: Calcium assay, CHO GalR2 cells (FLIPR). Particulars: mean +/− standard deviation.
Method: CHO GalR2 cells were plated at 10,000 cells per well in black clear bottom plates (corning, USA) and incubated overnight at 37° C. with 5% CO2. […] Ligands were prepared at a 5× concentration and added to cells using the FLIPR (Molecular Devices, USA). Baseline was typically 20 seconds before ligand addition. […] For analysis, fluorescence was normalised to pre-addition baseline and peak fluorescence used for all quantification.
In brief, a panel of functional cell-based microtiter-plate assays were developed using recombinant GalR1 and GalR2 receptors stably expressed in CHO cells. […] Nominally this equated to 10 serial (~3fold) dilutions with highest concentrations of 10-1 μM as appropriate.
In addition to generating both potency and efficacy estimates, the latter being expressed relative to native galanin, both G-protein and non-G-Protein signalling pathways were measured.

The next test deals with T2, rat GalR2 (Rattus norvegicus, UniProt O08726).
T2 sequence (O08726 1-372): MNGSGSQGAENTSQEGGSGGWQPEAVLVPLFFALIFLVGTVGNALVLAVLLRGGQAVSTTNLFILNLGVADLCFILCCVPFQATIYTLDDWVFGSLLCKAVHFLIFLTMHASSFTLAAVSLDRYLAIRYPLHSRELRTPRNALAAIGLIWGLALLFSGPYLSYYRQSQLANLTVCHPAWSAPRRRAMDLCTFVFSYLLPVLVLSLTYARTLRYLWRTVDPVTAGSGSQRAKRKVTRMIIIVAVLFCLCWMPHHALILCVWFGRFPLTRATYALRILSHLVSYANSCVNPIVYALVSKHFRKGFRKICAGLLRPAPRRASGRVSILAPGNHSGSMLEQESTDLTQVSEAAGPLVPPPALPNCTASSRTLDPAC
The test is described as follows: Calcium assay at orthologue receptor. Particulars: Table 8; Calcium assays; mean +/− standard deviation. Format: cell-based. An excerpt:
These species were chosen as they represent potential downstream in vivo models to be used. […] Calcium imaging was used to define receptor activity.

The target in test [2] is T1, GALR2. The test is described as follows: β-arrestin recruitment, PathHunter CHO-K1 GALR2 cells. Particulars: Table 2; mean +/− standard deviation, n ≥ 3. Format: cell-based. The protocol:
Ligands were prepared at half log dilutions using cell plating reagent 2. 5 μl of each ligand was added to cells and plates incubated at 37° C. for 90 minutes. DiscoverX PathHunter detection kit (DiscoverX, USA) was added to cells as described my manufacturer's guidelines and plates incubated for 60 minutes at room temperature in the dark. Chemiluminescent signal was measured using the PHERAstar FS (BMG, Germany).
(Arrestin recruitment assays detect the binding of arrestin to an activated receptor.)

Another test concerns the target T3, mouse GalR2 (Mus musculus, UniProt O88854).
T3 sequence (O88854 1-371): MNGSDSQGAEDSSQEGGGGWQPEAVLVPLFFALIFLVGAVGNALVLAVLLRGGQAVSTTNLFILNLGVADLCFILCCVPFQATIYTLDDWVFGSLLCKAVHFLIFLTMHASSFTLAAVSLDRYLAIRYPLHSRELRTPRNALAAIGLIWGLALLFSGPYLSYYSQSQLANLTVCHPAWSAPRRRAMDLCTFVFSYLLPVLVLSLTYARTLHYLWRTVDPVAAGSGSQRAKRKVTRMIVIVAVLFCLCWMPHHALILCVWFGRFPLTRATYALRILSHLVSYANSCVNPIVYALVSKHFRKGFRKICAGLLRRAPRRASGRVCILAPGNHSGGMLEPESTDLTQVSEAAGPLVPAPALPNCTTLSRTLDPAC
As to the kind of experiment: Calcium assay at orthologue receptor. Particulars: Table 8; Calcium assays; mean +/− standard deviation. It counts as cell-based. An excerpt: (§1) These species were chosen as they represent potential downstream in vivo models to be used. Within native galanin amino acid residues 1-15 are conserved across species, we would therefore expect the Gal FC fusions comprising amino acids 2 to 13 to retain GalR2 activity in these species. Calcium imaging was used to define receptor activity.

Test [3] concerns the target T1, GALR2. As to the kind of experiment: Radioligand binding, [125I]galanin displacement on CHO GalR2 membranes. Details: expressed in transfected cells; host or cells: CHO (Flp-In, pcDNA5/FRT). Particulars: recombinant GalR2 membranes, FIG. 3. How it is done:
Cell membrane homogenates (4 μg protein—from CHO cells expressing the GalR2 receptor) were incubated for 120 minutes at 22° C. with 0.05 nM [^125I] galanin in the absence or presence of test compound in a buffer containing 25 mM Tris-HCl (pH 7.4, 10 mM MgCl2 and 0.5% BSA. Non-specific binding was determined in the presence of 1 μM porcine galanin. Following incubation, samples were filtered rapidly under vacuum through glass fiber filters (GF/B, Packard) pre-soaked with 0.3% PEI and rinsed several times with ice cold 50 mM Tris-HCl using a 96 sample cell harvester (Unifilter, Packard). The filters are dried then counted for radioactivity in a scintillation counter (Topcount, Packard) using a scintillation cocktail (Microscint 0), Packard). The results are expressed as a percent inhibition of the control radioligand specific binding. The standard reference compound is porcine galanin which is tested in each experiment at several concentrations to obtain a competition curve from which its IC50 is generated.
Briefly, cell overexpressing recombinant GalR2 were used to for crude membrane preparations. Competition style binding assays were then used to monitor displacement of [125I]-Galanin using a range of concentrations of Gal-FC fusion. After a period of incubation data were expressed relative the maximum specific Galanin bound.

In another test the target is T4, GALR3 (Homo sapiens, UniProt O60755).
T4 construct: expressed in transfected cells; host or cells: genetically modified HEK293 Gqi cells, transient
T4 sequence (O60755 1-368): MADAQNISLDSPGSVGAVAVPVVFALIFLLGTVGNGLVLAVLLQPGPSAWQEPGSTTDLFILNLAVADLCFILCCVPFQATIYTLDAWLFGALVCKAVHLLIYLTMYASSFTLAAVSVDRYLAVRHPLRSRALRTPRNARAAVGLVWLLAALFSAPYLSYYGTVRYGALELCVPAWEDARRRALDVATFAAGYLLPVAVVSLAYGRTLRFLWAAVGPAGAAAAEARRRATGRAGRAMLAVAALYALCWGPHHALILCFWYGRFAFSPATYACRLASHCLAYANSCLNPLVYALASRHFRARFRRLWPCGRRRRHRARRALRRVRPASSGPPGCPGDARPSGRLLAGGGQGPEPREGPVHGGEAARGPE
As to the kind of experiment: Luciferase reporter gene assay (SRE), HEK293 Gqi cells. It counts as cell-based. Background: Reporter assays use an easily measured gene product as a stand-in for the process of interest.

A further test deals with cynomolgus GalR2. As to the kind of experiment: Calcium assay at orthologue receptor. It counts as cell-based, Macaca fascicularis. Particulars: Table 8; Calcium assays; mean +/− standard deviation.
Excerpt: as §1

For the next test, the target named is T5, GalR1 (Homo sapiens, UniProt P47211).
T5 sequence (P47211 1-349): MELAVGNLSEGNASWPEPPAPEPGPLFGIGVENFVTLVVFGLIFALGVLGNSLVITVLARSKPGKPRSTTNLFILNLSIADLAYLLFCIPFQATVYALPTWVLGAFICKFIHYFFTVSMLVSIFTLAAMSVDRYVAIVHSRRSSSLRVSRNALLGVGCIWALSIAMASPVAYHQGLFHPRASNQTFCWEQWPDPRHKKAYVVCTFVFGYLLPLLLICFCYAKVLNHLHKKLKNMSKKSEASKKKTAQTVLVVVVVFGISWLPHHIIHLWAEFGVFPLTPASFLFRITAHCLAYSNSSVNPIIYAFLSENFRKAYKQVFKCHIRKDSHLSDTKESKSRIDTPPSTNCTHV
As to the kind of experiment: Ala scanning of Gal2-13 peptides, activity at GalR1. It counts as cell-based. The note with it: peptides vs Gal2-13, FIG. 5. The text has this:
Replacement of residues 2, 3, 5, 6, 9, 10, 11, 12 (corresponding to W, T, L, S, Y, L, L, G) led to a significant decrease in activity at GalR2 (FIG. 5). Replacement of residues 4, 8, 13 (corresponding to N, G, P) caused no decrease in activity. […] Of note, none of the substitutions increased GalR2 or GalR1 agonistic activity.

Marks after values point to notes of the source that are not given here.

Method for GALR3: GalR3 activity was measured, alongside GalR1 and GalR2, using a luciferase reporter assay. A reporter plasmid and a receptor plasmid, were transiently transfected into the target cell line. The reporter plasmid contains a serum response element (SRE) or a nuclear factor of activated T-cells response element (NFAT-RE) which is coupled to a luciferase transcript and induces expression of the luciferase upon a specific G-protein (Gai uses SRE; Gaq uses NFAT-RE) activation. The target receptor is constantly expressed after cell transfection. For GALR1 and GALR3 screening, genetically modified HEK293 Gqi cells were transiently transfected with the SRE reporter and the receptor (GALR1 and GALR3) plasmids. For GALR2 screening, HEK293 cells were transiently transfected with the NFAT-RE reporter and the receptor (GALR2) plasmid. […] The luciferase activity was analyzed with the Bright-Glo Luciferase Assay (Promega) in an EnSpire plate reader.
Therefore, to measure activity at the GalR3 receptor a reporter gene assay was used. In this system MAP/ERK signalling is used to measure receptor activity. Activation of Gqi coupled receptors leads to downstream activation of ERK1/2. The activated ERK translocates to the nucleus where it phosphorylates and activates transcription factors, which lead to the binding of Serum response element (SRE). In this assay SRE activation induces expression of a luciferase reporter gene. […] To ensure this effect was not an artifact of the reporter gene assay, GalR1 and GalR2 reporter assays (using SRE and NFAT-RE respectively) were also run.

As to “Gal2-12FC: galanin 2-12, AEAAAKEAAAKA linker, human IgG1 FC; SEQ ID NO: 25”, the “GalR2 Calcium, mean pEC50” value in the test with GALR2 [1] (Table 2, n ≥ 3) is 6.3 +/− 0.3. Also, the “GalR2 activity (calcium assay), warhead length” value in the test with GALR2 [1] (Table 6, highest concentration tested 10 μM) is 6.6 +/− 0.0. Further, in the test with rat GalR2, the “Rat GalR2 activity” value is given as 6.6 +/− 0.4. For the same substance, the “GalR2 Beta Arrestin, mean pEC50” value with GALR2 [2] was 7.6 +/− 0.2*. Also, the “Mouse GalR2 activity” value with mouse GalR2 was 6.8 +/− 0.1. In addition, the “pIC50, displacement of [125I]-Galanin binding” value with GALR2 [3] was 7.24. Besides, the “activity at GalR3 (in words)” value with GALR3 is listed as “no measurable activity”. Further, the “Cynomolgus GalR2 activity” value at cynomolgus GalR2 is 7.7 +/− 0.4.
In the case of “Gal2-13ala8: ala scanning peptide WTLNSAAYLLGP, SEQ ID NO: 43”, the “effect of Ala substitution on GalR1 activity” value with GalR1 is “reduced GalR1 activity”.
